According to paper PMC2175346:

T1: I-PpoI (Physarum polycephalum, UniProt Q94702 1-163)
T1 sequence: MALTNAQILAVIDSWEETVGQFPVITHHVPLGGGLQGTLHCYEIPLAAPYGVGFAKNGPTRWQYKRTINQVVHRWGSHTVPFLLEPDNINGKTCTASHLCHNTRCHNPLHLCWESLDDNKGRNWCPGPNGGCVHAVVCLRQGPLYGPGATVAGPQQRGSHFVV

T2: I-AniI (Aspergillus nidulans, UniProt P03880 237-488)
T2 sequence: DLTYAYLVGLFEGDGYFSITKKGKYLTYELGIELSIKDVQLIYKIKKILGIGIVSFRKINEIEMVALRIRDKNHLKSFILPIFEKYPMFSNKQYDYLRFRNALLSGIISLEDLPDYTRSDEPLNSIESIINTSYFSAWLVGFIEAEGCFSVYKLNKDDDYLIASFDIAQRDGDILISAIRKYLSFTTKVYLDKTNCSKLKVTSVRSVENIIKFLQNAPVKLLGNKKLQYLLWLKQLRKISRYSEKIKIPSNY


Assays:
[1] = biological target: T1, I-PpoI; experiment: ITC
[2] = biological target: T2, I-AniI; experiment: ITC

| Binder | Kd [1] [nM] | Kd [2] [nM] |
| --- | --- | --- |
| I-PpoI LL palindrome (dsDNA) DNA 1: GGGGGTGCAGTGACTCTCTTAAGAGAGTCAGACGTGGGGG DNA 2: CCCCCACGTCTGACTCTCTTAAGAGAGTCACTGCACCCCC | 87 ± 8.8 | – |
| I-PpoI RR palindrome (dsDNA) DNA 1: GGGGGTGCAGTGGCTACCTTAAGGTAGCCAGACGTGGGGG DNA 2: CCCCCACGTCTGGCTACCTTAAGGTAGCCACTGCACCCCC | 23 ± 1.6 | – |
| I-AniI WT site (dsDNA) DNA 1: CCTTCCCTGAGGAGGTTTCTCTGTAAACCCTTCC DNA 2: GGAAGGGTTTACAGAGAAACCTCCTCAGGGAAGG | – | 96 ± 10 |
| I-AniI WT-OPT site (dsDNA) DNA 1: CCTTCCCTGAGGAGGTTACTCTGTTAACCCTTCC DNA 2: GGAAGGGTTAACAGAGTAACCTCCTCAGGGAAGG | – | 8 ± 1 |
